Experimental data as given in patent US20260232827A1 (Zymeworks, published 2026).

T1: human sodium-dependent phosphate transporter 2B (NaPi2b) (human, UniProt O95436 1-690)
T1 sequence: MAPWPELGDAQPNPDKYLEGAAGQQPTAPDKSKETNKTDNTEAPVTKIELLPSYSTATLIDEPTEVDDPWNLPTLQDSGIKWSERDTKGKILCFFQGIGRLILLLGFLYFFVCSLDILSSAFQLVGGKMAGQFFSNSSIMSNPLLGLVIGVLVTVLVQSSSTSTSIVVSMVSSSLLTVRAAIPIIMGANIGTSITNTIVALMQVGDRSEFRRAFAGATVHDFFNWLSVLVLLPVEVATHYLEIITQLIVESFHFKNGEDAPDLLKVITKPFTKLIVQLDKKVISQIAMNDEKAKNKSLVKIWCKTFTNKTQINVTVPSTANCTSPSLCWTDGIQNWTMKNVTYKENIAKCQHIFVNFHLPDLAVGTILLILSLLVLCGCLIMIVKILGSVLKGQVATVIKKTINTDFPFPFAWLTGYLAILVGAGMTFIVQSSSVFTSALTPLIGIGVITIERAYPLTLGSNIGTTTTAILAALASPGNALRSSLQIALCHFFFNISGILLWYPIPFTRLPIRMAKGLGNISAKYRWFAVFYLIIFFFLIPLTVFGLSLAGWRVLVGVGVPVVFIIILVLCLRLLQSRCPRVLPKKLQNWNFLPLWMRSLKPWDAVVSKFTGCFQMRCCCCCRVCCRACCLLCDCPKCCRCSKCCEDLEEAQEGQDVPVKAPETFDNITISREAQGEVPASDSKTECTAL

T2: mouse NaPi2b (mouse, UniProt Q9DBP0 1-697)
T2 construct: Transfected into HEK293-6e cells (clone CL_#13476); also called Ms NaPi2b
T2 sequence: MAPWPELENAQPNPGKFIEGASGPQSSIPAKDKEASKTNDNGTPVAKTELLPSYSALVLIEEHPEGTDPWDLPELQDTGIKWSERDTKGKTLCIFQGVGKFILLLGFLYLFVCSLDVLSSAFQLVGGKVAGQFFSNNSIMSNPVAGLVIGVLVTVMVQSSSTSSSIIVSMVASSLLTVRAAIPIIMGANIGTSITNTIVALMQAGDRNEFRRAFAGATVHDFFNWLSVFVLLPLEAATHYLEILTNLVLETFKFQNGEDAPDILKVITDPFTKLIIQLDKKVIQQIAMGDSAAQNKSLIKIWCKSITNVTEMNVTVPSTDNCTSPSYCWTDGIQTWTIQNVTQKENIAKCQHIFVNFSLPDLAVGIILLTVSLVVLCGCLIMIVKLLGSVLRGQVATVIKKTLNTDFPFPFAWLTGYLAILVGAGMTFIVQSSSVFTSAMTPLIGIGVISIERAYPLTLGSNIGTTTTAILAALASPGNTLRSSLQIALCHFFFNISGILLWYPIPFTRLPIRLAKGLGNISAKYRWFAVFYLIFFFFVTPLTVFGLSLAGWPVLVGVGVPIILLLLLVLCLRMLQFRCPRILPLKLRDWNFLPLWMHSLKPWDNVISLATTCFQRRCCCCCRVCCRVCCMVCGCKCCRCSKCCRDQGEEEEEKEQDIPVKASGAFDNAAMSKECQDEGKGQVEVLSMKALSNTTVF

T3: cynomolgus monkey NaPi2b (cynomolgus monkey, UniProt O95436 1-690 (human entry))
T3 construct: Transfected into HEK293-6e cells (clone CL_#13433); also called Cy NaPi2b; Cyno NaPi2b
T3 chain: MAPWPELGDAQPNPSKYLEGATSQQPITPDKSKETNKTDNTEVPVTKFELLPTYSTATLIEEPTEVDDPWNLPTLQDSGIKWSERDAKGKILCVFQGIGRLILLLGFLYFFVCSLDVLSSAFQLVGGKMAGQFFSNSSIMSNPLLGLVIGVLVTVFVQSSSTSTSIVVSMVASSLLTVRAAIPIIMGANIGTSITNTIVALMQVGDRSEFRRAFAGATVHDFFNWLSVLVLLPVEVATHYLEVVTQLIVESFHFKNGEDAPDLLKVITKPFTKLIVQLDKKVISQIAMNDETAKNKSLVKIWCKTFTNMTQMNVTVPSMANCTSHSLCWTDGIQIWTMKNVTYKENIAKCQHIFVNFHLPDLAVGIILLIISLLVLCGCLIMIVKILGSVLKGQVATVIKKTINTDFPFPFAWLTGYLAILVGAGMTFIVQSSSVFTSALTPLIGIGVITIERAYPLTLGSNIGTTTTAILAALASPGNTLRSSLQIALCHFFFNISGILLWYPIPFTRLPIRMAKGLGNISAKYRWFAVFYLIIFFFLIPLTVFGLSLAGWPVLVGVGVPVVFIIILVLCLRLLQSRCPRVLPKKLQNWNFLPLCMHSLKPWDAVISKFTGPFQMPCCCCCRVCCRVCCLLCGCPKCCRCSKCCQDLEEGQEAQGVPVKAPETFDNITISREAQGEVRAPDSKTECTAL

T4: human NaPi2b (sodium-dependent phosphate transporter 2B) (human, UniProt O95436 1-690)
T4 sequence: T1 sequence

T5: human sodium-dependent phosphate transporter 2B (NaPi2b) (human, UniProt O95436 1-690)
T5 construct: UniProt ID is given as 095436 [sic]; also called hNaPi2b; Hu NaPi2b
T5 sequence: T1 sequence

B1: v38591-MC-GGFG-AM-Compound 139 DAR 8 (antibody, human IgG1, kappa)
heavy: not shown
light: DVQMTQSPSSLSASVGDRVTITCRASQDVYSYLNWYQQKPGKAVKLLIYYTSRLQSGVPSRFSGSGSGTDYTLTISSLQPEDFATYYCQQYNIFPWTFGQGTKLEIKRTVAAPSVFIFPPSDEQLKSGTASVVCLLNNFYPREAKVQWKVDNALQSGNSQESVTEQDSKDSTYSLSSTLTLSKADYEKHKVYACEVTHQGLSSPVTKSFNRGEC
modifications: drug-linker MC-GGFG-AM-Compound 139 on cysteine thiols after TCEP reduction, positions not given; DAR 8 for the whole antibody
notes: Antibody-drug conjugate of v38591 (IgG1/kappa); also called v38593
B2: v38591-MC-GGFG-AM-Compound 139 DAR 4 (antibody, human IgG1, kappa)
heavy: not shown
light: B1 light
modifications: drug-linker MC-GGFG-AM-Compound 139 on cysteine thiols after TCEP reduction, positions not given; DAR 4 for the whole antibody
notes: Antibody-drug conjugate of v38591 (IgG1/kappa)
B3: v40502-MC-GGFG-AM-Compound 139 DAR 4 (antibody, human IgG1, kappa, L234A L235A)
heavy: not shown
light: B1 light
modifications: drug-linker MC-GGFG-AM-Compound 139 on cysteines freed by TCEP reduction, DAR 4 over the whole antibody
B4: v40502 (LALADS) anti-NaPi2b antibody (antibody, human IgG1, kappa, L234A L235A)
heavy: not shown
light: B1 light
notes: v38591 with L234A, L235A and D265S (EU) in the Fc
B5: v40502 (LALADS)-MC-GGFG-AM-Compound 139 DAR 4 (antibody, human IgG1, kappa, L234A L235A)
heavy: not shown
light: B1 light
modifications: as above; MC-GGFG-AM-Compound 139 drug-linker on cysteines freed by TCEP reduction; sites not stated; DAR 4
notes: Antibody-drug conjugate of v40502
B6: v22277 (palivizumab) (antibody, human IgG1, kappa)
heavy 1: GQVTLRESGPALVKPTQTLTLTCTFSGFSLSTSGMSVGWIRQPPGKALEWLADIWWDDKKDYNPSLKSRLTISKDTSKNQVVLKVTNMDPADTATYYCARSMITNWYFDVWGAGTTVTVSSASTKGPSVFPLAPSSKSTSGGTAALGCLVKDYFPEPVTVSWNSGALTSGVHTFPAVLQSSGLYSLSSVVTVPSSSLGTQTYICNVNHKPSNTKVDKKVEPKSCDKTHTCPPCPAPELLGGPSVFLFPPKPKDTLMISRTPEVTCVVVDVSHEDPEVKFNWYVDGVEVHNAKTKPREEQYNSTYRVVSVLTVLHQDWLNGKEYKCKVSNKALPAPIEKTISKAKGQPREPQVYVYPPSRDELTKNQVSLTCLVKGFYPSDIAVEWESNGQPENNYKTTPPVLDSDGSFALVSKLTVDKSRWQQGNVFSCSVMHEALHNHYTQKSLSLSPG
heavy 2: not shown
light: GDIQMTQSPSTLSASVGDRVTITCKSQLSVGYMHWYQQKPGKAPKLLIYDTSKLASGVPSRFSGSGSGTEFTLTISSLQPDDFATYYCFQGSGYPFTFGGGTKLEIKRTVAAPSVFIFPPSDEQLKSGTASVVCLLNNFYPREAKVQWKVDNALQSGNSQESVTEQDSKDSTYSLSSTLTLSKADYEKHKVYACEVTHQGLSSPVTKSFNRGEC

Assays:
[1] = target: T1, human sodium-dependent phosphate …; test: cell-based or functional assay
[2] = target: T1, human sodium-dependent phosphate …; test: flow cytometry on HEK293-6e cells transfected with human NaPi2b
Method: (§1) Following transfection, cells were seeded at 50,000 cells/well in conical-bottom 96-well plates and treated with test antibody or antibody-drug conjugate for 24 hours at 4° C. to prevent internalization. […] Following incubation and washing, fluorescence was detected by flow cytometry on a BD LSRFortessa™ Cell Analyzer (BD Biosciences, Franklin Lake, NJ) with 1,000 minimum events collected per well.

mouse NaPi2b [3] = target: T2, mouse NaPi2b; test: flow cytometry on HEK293-6e cells transfected with mouse NaPi2b
Method: as §1

[4] = target: T1, human sodium-dependent phosphate …; test: flow cytometry on HEK293-6e cells transfected with human NaPi2b; remark: listed apart in the source
Method: as §1

cynomolgus monkey NaPi2b [5] = target: T3, cynomolgus monkey NaPi2b; test: flow cytometry on HEK293-6e cells transfected with cynomolgus NaPi2b
Method: as §1

[6] = target: T1, human sodium-dependent phosphate …; test: flow cytometry on IGROV-1 cells, 24 h at 4 C, anti-human IgG Fc AF647
Method: (§2) Following incubation and washing, fluorescence was detected by flow cytometry on a BD LSRFortessa™ Cell Analyzer (BD Biosciences, Franklin Lake, NJ) with 1,000 minimum events collected per well.

[7] = target: T1, human sodium-dependent phosphate …; test: flow cytometry on OVCAR-3 cells, 24 h at 4 C, anti-human IgG Fc AF647
Method: as §2

mouse NaPi2b [8] = target: T2, mouse NaPi2b; test: flow cytometry on HEK293-6e cells transfected with mouse NaPi2b, apparent Kd
Method: as §1

cynomolgus monkey NaPi2b [9] = target: T3, cynomolgus monkey NaPi2b; test: flow cytometry on HEK293-6e cells transfected with cynomolgus NaPi2b, apparent Kd
Method: as §1

[10] = target: T4, human NaPi2b (sodium-dependent …); test: cell-based or functional assay
[11] = target: T4, human NaPi2b (sodium-dependent …); test: cell-based or functional assay; remark: listed apart in the source
[12] = target: T4, human NaPi2b (sodium-dependent …); test: flow cytometry on H441 cells (endogenous NaPi2b), 24 h at 4 C
Method: (§3) Cells were maintained under standard culture conditions (37° C./5% CO₂) until assay set-up. […] Cells were removed from culture vessels using Cell Dissociation Buffer (Invitrogen, Waltham, MA), seeded at 50,000 cells/well in conical-bottom 96-well plates, and treated with test antibody or antibody-drug conjugate for 24 hours at 4° C. to prevent internalization. […] Following incubation and washing, fluorescence was detected by flow cytometry on a BD LSRFortessa™ Cell Analyzer (BD Biosciences, Franklin Lake, NJ) with 1,000 minimum events collected per well.

[13] = target: T4, human NaPi2b (sodium-dependent …); test: flow cytometry on HCC-78 cells (endogenous NaPi2b), 24 h at 4 C
Method: as §3

[14] = target: T4, human NaPi2b (sodium-dependent …); test: flow cytometry on IGROV-1 cells (endogenous NaPi2b), 24 h at 4 C
Method: as §3

[15] = target: T5, human sodium-dependent phosphate …; test: flow cytometry on H441 cells (endogenous NaPi2b), 24 h at 4 C, anti-human IgG Fc AF647, APC-A GeoMean
Method: as §3

[16] = target: T5, human sodium-dependent phosphate …; test: flow cytometry on HCC-78 cells (endogenous NaPi2b), 24 h at 4 C, anti-human IgG Fc AF647, APC-A GeoMean
Method: as §3

[17] = target: T5, human sodium-dependent phosphate …; test: flow cytometry on IGROV-1 cells (endogenous NaPi2b), 24 h at 4 C, anti-human IgG Fc AF647, APC-A GeoMean
Method: as §3

[18] = target: T1, human sodium-dependent phosphate …; test: cell-based or functional assay; remark: listed apart in the source

Binder	Bmax [2]	Bmax (mouse NaPi2b [3])	Bmax [4]	Bmax (cynomolgus monkey NaPi2b [5])	Bmax [6]	Kd [6]	Bmax [7]	Kd [7]	Kd (mouse NaPi2b [8])	Kd (cynomolgus monkey NaPi2b [9])	EC50 (read off the curve) [15]	EC50 (read off the curve) [16]	EC50 (read off the curve) [17]	other results
B1	1530	396	1530	408	20500	1.6 nM	14300	2.71 nM	0.64 nM	0.47 nM	–	–	–	Internalized Fluorescence in OVCAR-3, 15 min, 100 nM [1]: 7380; Internalized Fluorescence in OVCAR-3, 4 hr, 100 nM [1]: 15600; Internalized Fluorescence in OVCAR-3, 16 hr, 100 nM [1]: 16800; Internalized Fluorescence in OVCAR-3, 24 hr, 100 nM [1]: 26700
B2	1260	538	1260	459	22700	1.7 nM	15500	2.52 nM	1.49 nM	0.36 nM	–	–	–	–
B3	–	–	–	–	–	–	–	–	–	–	–	–	–	Internalized Fluorescence Fold-Over Untreated, H441, 4 h, 2.5 nM [10]: 1.2 fold; Internalized Fluorescence Fold-Over Untreated, H441, 24 h, 2.5 nM [10]: 1.9 fold; Internalized Fluorescence Fold-Over Untreated, HCC-78, 4 h, 2.5 nM [10]: 5.3 fold; Internalized Fluorescence Fold-Over Untreated, HCC-78, 24 h, 2.5 nM [10]: 36.5 fold; Internalized Fluorescence Fold-Over Untreated, IGROV-1, 4 h, 2.5 nM [10]: 6.8 fold; Internalized Fluorescence Fold-Over Untreated, IGROV-1, 24 h, 2.5 nM [10]: 25.4 fold; EC50 (nM), in vitro cytotoxicity, H441 spheroids, 7 days [11]: 7.57 nM; EC50 (nM), in vitro cytotoxicity, H1781 spheroids, 7 days [11]: 1.15 nM; Bmax (MFI) [12]: 518 MFI; Kd [12]: 0.81 nM; Bmax (MFI) [13]: 7770 MFI; Kd [13]: 1.12 nM; Bmax (MFI) [14]: 10700 MFI; Kd [14]: 0.82 nM
B4	–	–	–	–	–	–	–	–	–	–	~0.6 nM	~3 nM	~2 nM	–
B5	–	–	–	–	–	–	–	–	–	–	~0.6 nM	~3 nM	~2 nM	–
B6	–	–	–	–	–	–	–	–	–	–	–	–	–	Internalized Fluorescence Fold-Over Palivizumab, IGROV-1, 4 hrs, 10 nM [18]: 1 fold; Internalized Fluorescence Fold-Over Palivizumab, OVCAR-3, 4 hrs, 10 nM [18]: 1 fold; Internalized Fluorescence Fold-Over Palivizumab, OVCAR-3, 24 hrs, 10 nM [18]: 1 fold
